Laboratory results taken from publication PMC9600955.

Target: LapD2 purified in isolation (Streptococcus intermedius GC1825)
Assay: crystal structure; LapD2 at 10 mg/mL, hanging drop, 0.2 M lithium sulfate, 0.1 M Tris-HCl pH 8.0, 30% PEG 4000; SAD phasing, native data to 2.20 Å

LapD2 purified in isolation (natural protein)
stoichiometry N: 2
